By Kd is commonly meant the equilibrium constant for the complex coming apart. A higher Kd goes with a looser complex.

The record followed here is article PMC5308906 (2016).

The target of this test is T1, ψIRS1-Cargo V5 (Homo sapiens, UniProt Q05655, not fully specified).
T1 chain: EKARLSYS
The experiment in a line: AGILE Dev Kit binding assay.

No end group written: not given here.

B1: θPKC (protein)
chain: MSPFLRIGLSNFDCGSCQSCQGEAVNPYCAVLVKEYVESENGQMYIQKKPTMYPPWDSTFDAHINKGRVMQIIVKGKNVDLISETTVELYSLAERCRKNNGKTEIWLELKPQGRMLMNARYFLEMSDTKDMNEFETEGFFALHQRRGAIKQAKVHHVKCHEFTATFFPQPTFCSVCHEFVWGLNKQGYQCRQCNAAIHKKCIDKVIAKCTGSAINSRETMFHKERFKIDMPHRFKVYNYKSPTFCEHCGTLLWGLARQGLKCDACGMNVHHRCQTKVANLCGINQKLMAEALAMIESTQQARCLRDTEQIFREGPVEIGLPCSIKNEARPPCLPTPGKREPQGISWESPLDEVDKMCHLPEPELNKERPSLQIKLKIEDFILHKMLGKGSFGKVFLAEFKKTNQFFAIKALKKDVVLMDDDVECTMVEKRVLSLAWEHPFLTHMFCTFQTKENLFFVMEYLNGGDLMYHIQSCHKFDLSRATFYAAEIILGLQFLHSKGIVYRDLKLDNILLDKDGHIKIADFGMCKENMLGDAKTNTFCGTPDYIAPEILLGQKYNHSVDWWSFGVLLYEMLIGQSPFHGQDEEELFHSIRMDNPFYPRWLEKEAKDLLVKLFVREPEKRLGVRGDIRQHPLFREINWEELERKEIDPPFRPKVKSPFDCSNFDKEFLNEKPRLSFADRALINSMDQNMFRNFSFMNPGMERLIS
Molecule B1 gave a Kd of 200 nM.
